Reference: the DeepSol protein solubility set

Experiment: soluble on expression in E. coli; label from the status in PepcDB or PDB records

Sequence | soluble on expression in E. coli
MGSDKIHHHHHHADMDGSQNKETENKEIKIILEAETSSQNIFAPIVFYQSFDFGKDAPCLSEVYDSIVWKSSHSPNSFKVFSHSNYARYVETTFFKWAHVYYSPGTYKTYLLGYKNNEIIYSSDTISIDITNKKDFLAFNWKDVTDSDFTTGYANNLDGYYLSTQTHIHQGVPSVMLYAKNEKYEKGGSMKSKQILYNYINSFFSLPNYTATSDESLRKEFSTIFSFQEENAIPLNIWLTPKAKIVLLRKDFKGLESEYKIYAEPGDLI | not soluble
GMTDAPADAPLDADARRAVKPVICYPNDSLPRPDLALYRAARASARKTGEVLVPPREGRCFEVKAGQFFRISSVEGPQVGDLNLHNLHDLTERFFSGKTRALHGTHVTTGERLWSNLPYLRPMATIIEDTLGWYGIDQYGGSVHDVIGTRCDPYTGNLLAGGHYHHCCHSNLTRALADHTGLPLHEAEMLVHDVLNVFMCTGFTRDTGQYFMKASPVRPGDYLEFFAEIDLLGNLSACPGGDCSSEHSSDTASCHPLLVEIFAPAEGMLGDWPSPSVNGYDRSHGR | soluble
MTKDRQIKKTKTAIYSAFIALLQKKEYSKITVRDMITLANVGRSTFYAHYESKEMLLKELCEELFHHLFRQKRNVTFEDYLVHILKHFEQNKDSIATLLLSNDPYFLLRFKNELEHDVYPNLRCKYIDKTTIPEVFLKQFVLSSFIETLKWWLHQRQRMSANELLKYYLELIK | soluble
LALVATGNDTTTKPDLYYLKNSEAINSLALLPPPPAVGSIAFLNDQAMYEQGRLLRNTERGKLAAEDANLSSGGVANAFSGAFGSPITEKDAPALHKLLTNMIEDAGDLATRSAKDHYMRIRPFAFYGVSTCNTTEQDKLSKNGSYPSGHTSIGWATALVLAEINPQRQNEILKRGYELGQSRVICGYHWQSDVDAARVVGSAVVATLHTNPAFQQQLQKAKAEFAQHQKK | soluble
MGSDKIHHHHHHMATLSRLFIHPVKSMRGIGLTHALADISGLAFDRIFMVTEPDGTFITARQFPQMVRFTPSPLHDGLHLTAPDGSSALVRFTDFTPQDAPTEVWGNHFTARVAPTAINQWLSGFFSRDVQLRWVGPQLTRRVKRHNAVPLGFADGYPYLLTNEASLRDLQQRCPAGVQMEQFRPNLVVSGVAAWEEDSWKVLRIGDVIFDVVKPCSRCIFTTVSPEKGQKHPSGEPLATLQAFRTALDNGDVDFGQNLIARNSGVIRVGDEVEILATAPAKAYGATTVDNSVTPEKHPDASVTIDWQGQTFCGNNQQVLLEQLENQGIRIPYSCRAGICGCCRIRLLEGEVSPLKKSAMGDDGTILSCSCVPKTALRLEN | not soluble
MILLSVHDSFLLDHNLPSACDKVFERLLDVTNSSFGFIATLQEDEDGQSLYLPAISNLAWDEETLTWYRHQRRTHGGLRLRKLDNLFGHVVTHNTVVCTNSLLRQKAGRDLPPIHPALHSLLGIPITHNGKTVGMIALANRREGYDQTMIELEHHHHHH | not soluble
MSLREGYLPAVITVSGKDRPGVTAAFFRVLSANQVQVLDVEQSMFRGFLNLAAFVGIAPERVETVTTGLTDTLKVHGQSVVVELQETVQSSRPRSSHVVVVLGDPVDALDISRIGQTLADYDANIDTIRGISDYPVTGLELKVTVPDVSPGGGEAMRKALAALTSELNVDIAIERSGLLRRSKRLVCFDCDSTLITGEVIEMLAAHAGKEAEVAAVTERAMRGELDFEESLRERVKALAGLDASVIDEVAAAIELTPGARTTIRTLNRMGYQTAVVSGGFIQVLEGLAEELELDYVRANTLEIVDGKLTGNVTGKIVDRAAKAEFLREFAADSGLKMYQTVAVGDGANDIDMLSAAGLGVAFNAKPALKEIADTSVNHPFLDEVLHIMGISRDEGHHHHHH | soluble
MGSDKIHHHHHHMRIAIVHYWLVGMRGGEKVIEALCRMYPQADIFTHVVAPERLSSMLAARHIRTSFIQRLPGSVRHYQKYLPLMPLALEQFDLRDYDLVISSESGPAKGVLTRADTAHVCYCHSPMRYLWDFQQDYLDNASPLMRPFMRIFFHYLRQWDVASSQRVDRFVANSRNVARRITKHWRREATVVHPPVECDLFTQAPDVADLPDDEVADIVRQGGYYLCLGQLVGYKRVDIAIEACRKAGRRLVVVGDGEQRAMLERNAPEGVTFLGWRTQDEIRALYAGCRALLFPGEEDFGIVPVECMASGRPVIAYGKGGALETVLDGETGVLFHEQTATACHDAIMRHERMERDFVPDSLRRHARTFDTSVFERKFRREVEAALHAVRG | not soluble
IVSFYQEQIIRSALALKLHQYEDTGGIIAAGTTSLPESDGATRNWDYRYCWMRDTYYTLQAFNTIGHFEESEKYFHYIENIVANELDRIQPLYTLDCSKKIEEIELDLEGYKGNKPVRVGNDAYTHIQNDVYGQILASITPLFTDRRLLHGNQFSTDIVYKLLAFIDKTMNEKDAGLWEFRHLKQLHCYTFLFHWVGAKSALKIGQLYGDHELIRKSTATIDKAAEMIERCYDPVRKVYTQAVGSTYLDASCIQLISMHYLDPSSEKARLHLKAIEEDLMVKDGLLFRYKHEDDFGKPEVTFLVCAFWYVDALASVGRIDDAIKAFESLLTYTNHVGLLSEDVGLDGSQWGNFPQTYSHVGLMNSAYRIAKKLDRPS | not soluble
MSYYHHHHHHLESTSLYKKSSSTPPRGVTVVNNFDAKRYLGTWYEIARFDHRFERGLEKVTATYSLRDDGGLNVINKGYNPDRGMWQQSEGKAYFTGAPTRAALKVSFFGPFYGGYNVIALDREYRHALVCGPDRDYLWILSRTPTISDEVKQEMLAVATREGFDVSKFIWVQQPGS | soluble
MRKEVEQLALMGAMPDEADERITAALVDEYADLLGKIVKPVTLDEAHILIKLFPPTALYGIEWTLLHLIESVYSEIKSLEYRELINECNSTEFKKMLVQRLNNSQQKKITNEAG | not soluble
MSLTDIHPPLLLIDTSTRVCSVAVAAAGTIISQRVSHVGNSHAANIGVFVQEVLTEAIGLGVKPSIVALSSGPGSYTGLRIGSSIAKGICFGLGIPLVSVPTLELIAEAARPLSQPDWLICPMIDARRMEVYTALFDSKGKALTDTLPLVIDNDSFSEELKKRNILFVGDGAEKCRPFLSHPNAHFSKNVIYPLALYMLHPALSRIETSSYEDVAYWEPFYLKEFVATVAKNKVIPRTQTTEGHHHHHH | not soluble
MSLERAVPLAVPLGQTEVFQALQRLHMTIFSQSVSPCGKFLAAGNNYGQIAIFSLSSALSSEAKEESKKPVVTFQAHDGPVYSMVSTDRHLLSAGDGEVKAWLWAEMLKKGCKELWRRQPPYRTSLEVPEINALLLVPKENSLILAGGDCQLHTMDLETGTFTRVLRGHTDYIHCLALRERSPEVLSGGEDGAVRLWDLRTAKEVQTIEVYKHEECSRPHNGRWIGCLATDSDWMVCGGGPALTLWHLRSSTPTTIFPIRAPQKHVTFYQDLILSAGQGRCVNQWQLSGELKAQVPGSSPGLLSLSLNQQPAAPECKVLTAAGNSCRVDVFTNLGYRAFSLSEGHHHHHH | not soluble
MGSDKIHHHHHHMDNLQFTHAIARIRVLETRLLDRSKIERMIDSSSAEEALKILGETEYLNYMSNVRSPEDYEILLSEELKRLYTLLYSISPERSIIDIMALRYDYHNLKVMLKGKYLEKDLTYLLIPVGTISNDKLKQIFATEFYKELTPLMREALEKAESEYEGDKDPQKIDLILDSYAYKEILSKSEEVNEKFINDYIKMSIDLNNIRALLRAKAQNKHRKFFEAIILDGGTIDKKTLISYESETSDSIANKLSYTPYEKIIRLGLEEYSKTNNISYFEKLSENYIMDFIKKAKQVSFGVEPLIGYIIAKETEIKIIRIIMVGKLNSIAPNIIRERLRDAYV | not soluble
MGSDKIHHHHHHMFKNVSWKLKEHSELKKYGIDHNILLDVVSRERRKIYFDYWKNLPKLVTSSLGLKFTDGTPVDALYEVFIEGIYDVDGFRPKMGDVVVDVGANYGDSSIWWAKKKFGAKVIAFEPLADVFHELEKNIRINHADVIAYNVALGNGNFINGSKQGNMFVAGGQAKIQTSRLDDYTFDRLDLLKIDVEGFEHDVLLGARSTISKFKPKIIIETHSVALRKLCHEFLISLGYSLSLEGRTIRAHSPGMDKVTNLFYSPII | not soluble
MSFAQQKLSELAVSIPGATKIFREYDLDFCCGGSVLLEVAAQQKNLNLAEIEKRLTDLQQSKAENNDKDWTSASYAEMIDHIITRFHNRHREQLPELITLAEKVENIHGDRDDCPIGVVAQLEKIYAELSQHLMKEEQILFPMIKMGNYAMASMPIRVMEMEHDEAGQDVEVIKSLTNNCTPPADACFSWKALYSGINEFIDDLMHHIHLENNILFPRVLNEK | not soluble
MDHDTEVIVKDFNSILEELTFNSRPIITTLTKLAEENISCAQYFVDAIESRIEKCMPKQKLYAFYALDSICKNVGSPYTIYFSRNLFNLYKRTYLLVDNTTRTKLINMFKLWLNPNDTGLPLFEGSALEKIEQFLIKASAAALE | soluble
MSLTVERVSAPTPAAFVDAANAAFRNGAVLSVQARCEVEYNGRTSGYLGDGDRLLVAKPDGTFLVHQPTGHKPVNWMPGGGTVEARTSQGDAVLLARRSNPTERVETRLHEVYGVTRFDAEDGATYEESGTEAEMHEYIEANPDALEAGLRIVEHERETKYGFIDFYAVDGDGTPVVIEVKRIQATLNHFDQLKRYVDRYAETNDDVRGMLVAPSASERVTRALRDNGLEFVALAEFGLDAKGATEAKLTDFEGHHHHHH | soluble
MRLVDLRSDTLTRPTPAMRKAMAEAEVGDDAYGEDPTVNRLEALAAERLGFERALFLPSGTMANQVALLLHLPKELEAEARRYRKLLGGGWRQAGVLAAAGILALEEGPKHLRRDHEMARALAEGLFRLGLAVDLGAVETNMVYLEVEDPEGFLQGLRARGVLAGRVGGRVRFVTHRDLMDEDIPLALERVQDLLHSRPR | soluble
GMFASLVIPVSAQANSGEMPQEQQLAVKYMDALTEHDYKTLITFYNRDSIFFDKTANRKYTGGRFIIDFLERAHQGVLEYDFNIEHMYNAGSLVVMIGNYHFKGPGEQFGKPGKIIDVAIPAVTSLKLDMLNRRVTEHVDLIDYQTMSDQLAMQ | soluble
MGSDKIHHHHHHMVVSIGVFDGVHIGHQKVLRTMKEIAFFRKDDSLIYTISYPPEYFLPDFPGLLMTVESRVEMLSRYARTVVLDFFRIKDLTPEGFVERYLSGVSAVVVGRDFRFGKNASGNASFLRKKGVEVYEIEDVVVQGKRVSSSLIRNLVQEGRVEEIPAYLGRYFEIEGIVHKDREFGRKLGFPTANIDRGNEKLVDLKRGVYLVRVHLPDGKKKFGVMNVGFRPTVGDARNVKYEVYILDFEGDLYGQRLKLEVLKFMRDEKKFDSIEELKAAIDQDVKSARNMIDDIINSKFEKEG | not soluble
MGSDKIHHHHHHMCEISVVMPVYNAEMHIKDAIESVLEQSFVDFEFILIDDGSTDHTSSIIQSYNDKRVRLIQNSHNFIESLNLGIENSLGKYMARMDGDDIMHIDRLKIQYAIMQEYPDVTVCGTWMNSIGTYSQTNGLLSTLSGWVEQPLLKFTKGNFLFHPTTMIRMDFLKKNALKYENYPYAEDFKFWVEIAKSGGRFYIDSQPLLYYRISDSQVSSQKSSEQRATTESIINEVLEYLMELNKNEYPELAAAYGDLCKLYEKQLLTKCEVLTLFQTLFSKNEKKLNL | not soluble
